{
  "source": "paper PMC314469",
  "about": "“Protein Interaction Networks by Proteome Peptide Scanning” (PLoS Biology, 2004)",
  "target": "T1, GST-Abp1 SH3 domain (S. cerevisiae, UniProt P15891 532-592)",
  "T1 construct": "SH3 domain of Abp1, S. cerevisiae",
  "T1 sequence (looked up)": "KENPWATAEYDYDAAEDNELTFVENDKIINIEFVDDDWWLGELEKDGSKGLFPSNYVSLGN",
  "assay": "SPR; BIAcoreX; GST-fused SH3 domains (and GST as control) amine-coupled to CM5 chips; peptides flowed at 25°C in 10 mM HEPES, 150 mM NaCl, 3.4 mM EDTA, 0.005% P20, pH 7.4, 15 μl/min, 500 μM to 65 nM; steady-state model",
  "settings": "both partners purified",
  "data": [
    {"binder": "RRPPPPPIPSTQKP (stretch of Ynl094w, S. cerevisiae; also called tetradecapeptide in the Ynl094w protein)", "note": "[Ynl094w peptide RRPPPPPIPSTQKP]", "values": [
      {"measurement": "Kd", "result": "≥ 100", "unit": "µM"}
    ]}
  ]
}
